This note sets out measurements from patent publication US20220041738A1 (SAITAMA MEDICAL UNIVERSITY, published 2022).

Test [1] has as its target T1, mouse ALK2(WT)-EGFP on HEK293A cells (mouse, UniProt P37172 21-509).
T1 construct: Expressed from pcDEF3/mouse ALK2(WT)-EGFP; also called mALK2(WT)-EGFP; wild-type mouse ALK2; not shown: EGFP fused to ALK2
T1 sequence: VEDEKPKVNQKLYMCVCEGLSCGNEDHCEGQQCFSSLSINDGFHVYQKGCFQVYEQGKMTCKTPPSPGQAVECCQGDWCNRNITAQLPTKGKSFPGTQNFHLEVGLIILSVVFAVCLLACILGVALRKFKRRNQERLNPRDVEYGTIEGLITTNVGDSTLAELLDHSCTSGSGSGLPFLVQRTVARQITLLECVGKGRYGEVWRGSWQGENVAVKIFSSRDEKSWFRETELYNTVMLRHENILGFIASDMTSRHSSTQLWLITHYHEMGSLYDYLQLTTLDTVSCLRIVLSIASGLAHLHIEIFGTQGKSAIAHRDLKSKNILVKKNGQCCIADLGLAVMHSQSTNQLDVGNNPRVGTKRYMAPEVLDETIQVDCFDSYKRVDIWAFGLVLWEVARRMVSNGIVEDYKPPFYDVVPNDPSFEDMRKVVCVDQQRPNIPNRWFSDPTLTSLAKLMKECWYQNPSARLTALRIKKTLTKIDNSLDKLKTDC
Briefly: flow cytometry on transfected HEK293A cells, Alexa 647 anti-rat IgG (APC-A) against EGFP (FITC-A). The method, then: HEK293A cells were seeded into a 100-mm dish at 3×10⁴ cells/cm², and cultured overnight in 15% FBS-containing DMEM medium under the conditions of 5% CO₂ at 37° C. On the following day, the HEK293A cells were transfected with each of pcDEF3/mouse ALK2(WT)-EGFP, pcDEF3/human ALK2(WT)-EGFP, pcDEF3/human ALK2 (R206H)-EGFP, and pcDEF3, using Lipofectamine 2000 (Invitrogen), and further cultured overnight. On the following day, 100 μL each of the cell suspensions adjusted to 1×10⁶ cells/mL was dispensed into a 1.5-mL microfuge and centrifuged at 500 g for 5 minutes, and then the supernatant was removed. To the cells, 100 μL of purified IgG diluted to 1 μg/mL was added, and the cells were left for 30 minutes at 4° C. After the cells were washed with PBS three times, 100 μL of Alexa flour 647 Goat anti-Rat IgG (H+L) (Life Technologies) diluted to 1:200 was added, and the cells were further left for 30 minutes at 4° C. After the cells were washed with PBS three times, fluorescence was detected by a flow cytometer (FACS Aria II: BD Biosciences). The data was analyzed using BD Diva Software (BD Biosciences), and the intensity of EGFP expressed by the cells and the fluorescence intensity of stained Alexa flour 647 were plotted.

Test [2] deals with T2, human ALK2-G328R on cells (human, UniProt Q04771 21-509).
T2 sequence: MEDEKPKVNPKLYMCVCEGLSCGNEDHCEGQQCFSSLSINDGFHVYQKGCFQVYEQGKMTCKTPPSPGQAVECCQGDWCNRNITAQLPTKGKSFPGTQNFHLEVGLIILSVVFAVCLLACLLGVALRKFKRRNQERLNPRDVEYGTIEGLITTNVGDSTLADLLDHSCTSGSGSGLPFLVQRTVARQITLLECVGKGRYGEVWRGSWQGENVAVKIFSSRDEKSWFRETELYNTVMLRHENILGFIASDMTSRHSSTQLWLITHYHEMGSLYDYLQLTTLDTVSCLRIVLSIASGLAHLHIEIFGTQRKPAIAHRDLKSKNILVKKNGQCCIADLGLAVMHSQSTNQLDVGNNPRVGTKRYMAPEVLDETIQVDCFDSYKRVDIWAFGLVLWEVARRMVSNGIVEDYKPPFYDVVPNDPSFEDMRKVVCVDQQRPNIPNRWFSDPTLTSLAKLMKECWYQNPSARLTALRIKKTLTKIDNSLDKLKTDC
The test is described as follows: immunofluorescence on transfected, formalin-fixed C2C12 cells, IgG at 10 µg/mL, Alexa 594 anti-rat IgG. As to the method: (§1) Mouse C2C12 cells were seeded into a 96-well plate (Greiner Bio-One) at 0.5×10³ cells/well, and cultured in 15% FBS-containing DMEM medium overnight under the conditions of 5% CO₂ at 37° C. On the following day, the C2C12 cells were transfected with each of a wild-type human ALK2 cDNA integrated into pcDEF3; pcDEF3/human ALK2-L196P, pcDEF3/human ALK2-P197_F198delinsL, pcDEF3/human ALK2-R202I, pcDEF3/human ALK2-R206H, pcDEF3/human ALK2-Q207E, pcDEF3/human ALK2-R258S, pcDEF3/human ALK2-G325A, pcDEF3/human ALK2-G328E, pcDEF3/human ALK2-G328R, pcDEF3/human ALK2-G328W, pcDEF3/human ALK2-G356D, and pcDEF3/human ALK2-R375P, which are variants identified in FOP; and pcDEF3 as a control, using Lipofectamine 2000 (Invitrogen), and further cultured overnight.
(§2) The C2C12 cells were fixed with 10% neutral formalin (Nacalai Tesque, Japan) for 20 minutes at room temperature, and then blocked with 10% goat normal serum for 30 minutes. After the blocking agent was removed, purified IgG diluted to 10 μg/mL with the blocking agent was added, and the cells were left for 1 hour at room temperature. After the cells were washed with PBS three times, Goat Alexa 594-conjugated anti-rat IgG (Invitrogen) diluted to 1:1000 with the blocking agent was added, and the cells were left for 1 hour at room temperature. After the cells were washed with PBS three times, the cells were fixed with 10% neutral formalin for 15 minutes at room temperature, and nuclear-stained with DAPI (LifeTechnologies). Fluorescent signals were analyzed with a fluorescence microscope BZ-9000 (Keyence).

Test [3] has as its target T3, human ALK2-G328W on cells (human, UniProt Q04771 21-509).
T3 sequence: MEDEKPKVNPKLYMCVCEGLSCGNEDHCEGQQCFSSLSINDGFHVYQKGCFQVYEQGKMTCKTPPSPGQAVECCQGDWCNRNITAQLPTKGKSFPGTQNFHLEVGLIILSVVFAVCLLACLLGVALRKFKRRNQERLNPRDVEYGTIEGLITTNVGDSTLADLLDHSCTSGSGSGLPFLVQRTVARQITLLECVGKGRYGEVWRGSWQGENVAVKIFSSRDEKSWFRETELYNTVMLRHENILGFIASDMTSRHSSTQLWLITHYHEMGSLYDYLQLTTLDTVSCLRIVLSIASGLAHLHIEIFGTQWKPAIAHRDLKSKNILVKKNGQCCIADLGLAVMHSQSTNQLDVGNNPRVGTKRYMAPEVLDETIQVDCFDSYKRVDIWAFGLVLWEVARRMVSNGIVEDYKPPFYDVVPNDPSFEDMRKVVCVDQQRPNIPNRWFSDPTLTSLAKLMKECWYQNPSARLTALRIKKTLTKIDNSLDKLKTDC
The test is described as above. As to the method: as §1, §2

B1: rat anti-ALK2 monoclonal antibody A2-27D (antibody, V domains shown)
VH: EVQLVESGGGLVQPGRSLKLSCLASGSTFSNYGMKWIRQAPGKGLEWVASISRSSTYIYYADTVKGRFTISRDNARNTLYLQMTSLRSEDTALYYCAAAISTPFYWYFDFWGPGTVVTVSS
VL: EIVLTQSPTTMAASPGEKVTLNCLASSSVSYMTWYQQKSGASPKLWIYGTSNLASGVPNRFSGSGSGTSYSLAISSMEAEDVATYYCLHLTSYPPYTFGAGTKLELKR
notes: Rat monoclonal IgG from a hybridoma; also called 27D11
For the molecule B1, the binding result in test [1], in test [2] and in test [3] was “binds” each time.

B2: rat anti-ALK2 monoclonal antibody A2-15A (antibody, V domains shown)
VH: EVQLVESGGGLVQPGRSLKLSCAASGFTFSHYYMAWVRQAPTKGLEWVASITNSGGSINYRDSVKGRFTISRDNAKSTLYLQMDSLRSEDTATYYCTREGGENYGGYPPFAYWGQGTLVTVSS
VL: DIVLTQSPALAVSLGQRATISCRANQGVSLSRYNLMHWYQQKPGQKPKLLIYRSSNLASGIPARFSGSGSGTDFTLTINPVQADDIATYYCQQSRESPFTFGAGTKLELKR
notes: Rat monoclonal IgG from a hybridoma; also called 15A6
In the case of B2, in test [1], the binding result was “binds”.

B3: rat anti-ALK2 monoclonal antibody A2-11E (antibody, V domains shown)
VH: EVQLVETGGGLVQPGRSLKLSCVASGFTFSNYYMYWIRQAPGKGLEWISSINTDGGSTYYPDSVKGRFAISRDNAENTVYLQMNSLRSEDTATYYCAKSTPNIPLAYWGQGTLVTVSS
VL: DIQMTQSPSLLSASVGDRVTLSCKASQNIYKYLNWFQQKLGEAPKLLIYYSNSLQTGIPSRFSGSGSGTDFTLTISSLQPEDVAIYFCFQYSSGPTFGPGTKLELKR
notes: Rat monoclonal IgG from a hybridoma; also called 11E2
On to B3, for which, in test [1], the binding result is reported as “binds”.

B4: rat anti-ALK2 monoclonal antibody A2-25C (antibody, V domains shown)
VH: EVQLVESGGGLVQPGGSLKLSCAASGFTFSYYAMSWVCQAPTKGLEWVASISRGGDNTYYRDTVKGRFTTSRDNAKNTLYLQMDSLRSEDTATYYCARLNYNNYFDYWGQGVMVTVSS
VL: DIQMTQSPASLSASLEEIVTITCQASQDIGNWLSWYQQKPGKSPQLLIYGATSLADGVPSRFSGSRSGTQYSLKISRLRVEDIGIYYCLQAYSAPFTFGSGTKLEIKR
notes: Rat monoclonal IgG from a hybridoma; also called 25C11
For the molecule B4, the binding result in test [1], in test [2] and in test [3] was “binds” throughout.
